Starred links: 1 amine or outer side, 2 acyl side, 3 side chain; linkers in the order of their positions; H or OH if unused. Non-standard residues stand in square brackets, D forms with d. No end group written: not given here. *: point of attachment. Trp(7-F) = N[C@@H](Cc1c[nH]c2c(F)cccc12)C(=O)O; Trp(7-Me) = Cc1cccc2c(C[C@H](N)C(=O)O)c[nH]c12; C20 diacid = O=C(O)CCCCCCCCCCCCCCCCCCC(=O)*; d(γGlu) = O=C(O)[C@@H](CCC(=O)[*:2])N[*:1]; C18 diacid = O=C(O)CCCCCCCCCCCCCCCCC(=O)*; γGlu = O=C(O)[C@H](CCC(=O)[*:2])N[*:1]; Palmitoyl = CCCCCCCCCCCCCCCC(=O)*; 3Pal = N[C@@H](Cc1cccnc1)C(=O)O; Nle = CCCC[C@H](N)C(=O)O; AEEA = NCCOCCOCC(=O)O; Aib = CC(C)(N)C(=O)O; βAla = NCCC(=O)O; Sar = CNCC(=O)O

B1: Peptide 150 (peptide)
peptide: {C20 diacid}-[γGlu][AEEA][AEEA]GRHWAV[dA]HL[Nle]-NH2
SMILES: CCCC[C@H](NC(=O)[C@H](CC(C)C)NC(=O)[C@H](Cc1c[nH]cn1)NC(=O)[C@@H](C)NC(=O)[C@@H](NC(=O)[C@H](C)NC(=O)[C@H](Cc1c[nH]c2ccccc12)NC(=O)[C@H](Cc1c[nH]cn1)NC(=O)[C@H](CCCNC(=N)N)NC(=O)CNC(=O)COCCOCCNC(=O)COCCOCCNC(=O)CC[C@H](NC(=O)CCCCCCCCCCCCCCCCCCC(=O)O)C(=O)O)C(C)C)C(N)=O
B2: Peptide 147 (peptide)
peptide: {C18 diacid}-[γGlu][AEEA][AEEA]GQHWAV[dA]HL[Nle]-NH2
SMILES: CCCC[C@H](NC(=O)[C@H](CC(C)C)NC(=O)[C@H](Cc1c[nH]cn1)NC(=O)[C@@H](C)NC(=O)[C@@H](NC(=O)[C@H](C)NC(=O)[C@H](Cc1c[nH]c2ccccc12)NC(=O)[C@H](Cc1c[nH]cn1)NC(=O)[C@H](CCC(N)=O)NC(=O)CNC(=O)COCCOCCNC(=O)COCCOCCNC(=O)CC[C@H](NC(=O)CCCCCCCCCCCCCCCCC(=O)O)C(=O)O)C(C)C)C(N)=O
B3: Peptide 136 (peptide)
peptide: {C18 diacid}-[γGlu][AEEA][AEEA][AEEA][AEEA]GAH[Trp(7-F)]AV[dA]HL[Nle]-NH2
SMILES: CCCC[C@H](NC(=O)[C@H](CC(C)C)NC(=O)[C@H](Cc1c[nH]cn1)NC(=O)[C@@H](C)NC(=O)[C@@H](NC(=O)[C@H](C)NC(=O)[C@H](Cc1c[nH]c2c(F)cccc12)NC(=O)[C@H](Cc1c[nH]cn1)NC(=O)[C@H](C)NC(=O)CNC(=O)COCCOCCNC(=O)COCCOCCNC(=O)COCCOCCNC(=O)COCCOCCNC(=O)CC[C@H](NC(=O)CCCCCCCCCCCCCCCCC(=O)O)C(=O)O)C(C)C)C(N)=O
B4: Peptide 137 (peptide)
peptide: {C18 diacid}-[γGlu][AEEA][AEEA][AEEA][AEEA]GRH[Trp(7-F)]AV[dA]HL[Nle][Sar]-NH2
SMILES: CCCC[C@H](NC(=O)[C@H](CC(C)C)NC(=O)[C@H](Cc1c[nH]cn1)NC(=O)[C@@H](C)NC(=O)[C@@H](NC(=O)[C@H](C)NC(=O)[C@H](Cc1c[nH]c2c(F)cccc12)NC(=O)[C@H](Cc1c[nH]cn1)NC(=O)[C@H](CCCNC(=N)N)NC(=O)CNC(=O)COCCOCCNC(=O)COCCOCCNC(=O)COCCOCCNC(=O)COCCOCCNC(=O)CC[C@H](NC(=O)CCCCCCCCCCCCCCCCC(=O)O)C(=O)O)C(C)C)C(=O)N(C)CC(N)=O
B5: Peptide 134 (peptide)
peptide: {C18 diacid}-[γGlu][AEEA][AEEA]GNH[Trp(7-Me)]AV[dA]HL[Nle]R-NH2
SMILES: CCCC[C@H](NC(=O)[C@H](CC(C)C)NC(=O)[C@H](Cc1c[nH]cn1)NC(=O)[C@@H](C)NC(=O)[C@@H](NC(=O)[C@H](C)NC(=O)[C@H](Cc1c[nH]c2c(C)cccc12)NC(=O)[C@H](Cc1c[nH]cn1)NC(=O)[C@H](CC(N)=O)NC(=O)CNC(=O)COCCOCCNC(=O)COCCOCCNC(=O)CC[C@H](NC(=O)CCCCCCCCCCCCCCCCC(=O)O)C(=O)O)C(C)C)C(=O)N[C@@H](CCCNC(=N)N)C(N)=O
B6: Peptide 144 (peptide)
peptide: {C18 diacid}-[γGlu][AEEA][AEEA]FN[3Pal]WAV[βAla]HL[Nle]-NH2
SMILES: CCCC[C@H](NC(=O)[C@H](CC(C)C)NC(=O)[C@H](Cc1c[nH]cn1)NC(=O)CCNC(=O)[C@@H](NC(=O)[C@H](C)NC(=O)[C@H](Cc1c[nH]c2ccccc12)NC(=O)[C@H](Cc1cccnc1)NC(=O)[C@H](CC(N)=O)NC(=O)[C@H](Cc1ccccc1)NC(=O)COCCOCCNC(=O)COCCOCCNC(=O)CC[C@H](NC(=O)CCCCCCCCCCCCCCCCC(=O)O)C(=O)O)C(C)C)C(N)=O
B7: Peptide 141 (peptide)
peptide: {C18 diacid}-[γGlu][AEEA][AEEA]RRHWAV[dA]HL[Nle]-NH2
SMILES: CCCC[C@H](NC(=O)[C@H](CC(C)C)NC(=O)[C@H](Cc1c[nH]cn1)NC(=O)[C@@H](C)NC(=O)[C@@H](NC(=O)[C@H](C)NC(=O)[C@H](Cc1c[nH]c2ccccc12)NC(=O)[C@H](Cc1c[nH]cn1)NC(=O)[C@H](CCCNC(=N)N)NC(=O)[C@H](CCCNC(=N)N)NC(=O)COCCOCCNC(=O)COCCOCCNC(=O)CC[C@H](NC(=O)CCCCCCCCCCCCCCCCC(=O)O)C(=O)O)C(C)C)C(N)=O
B8: Peptide 138 (peptide)
peptide: {C20 diacid}-[γGlu][AEEA][AEEA]GNH[Trp(7-F)]AV[dA]HL[Nle][Sar]-NH2
SMILES: CCCC[C@H](NC(=O)[C@H](CC(C)C)NC(=O)[C@H](Cc1c[nH]cn1)NC(=O)[C@@H](C)NC(=O)[C@@H](NC(=O)[C@H](C)NC(=O)[C@H](Cc1c[nH]c2c(F)cccc12)NC(=O)[C@H](Cc1c[nH]cn1)NC(=O)[C@H](CC(N)=O)NC(=O)CNC(=O)COCCOCCNC(=O)COCCOCCNC(=O)CC[C@H](NC(=O)CCCCCCCCCCCCCCCCCCC(=O)O)C(=O)O)C(C)C)C(=O)N(C)CC(N)=O
B9: Peptide 140 (peptide)
peptide: {C18 diacid}-[γGlu][AEEA][AEEA]FNHWAV[βAla]HL[Nle]-NH2
SMILES: CCCC[C@H](NC(=O)[C@H](CC(C)C)NC(=O)[C@H](Cc1c[nH]cn1)NC(=O)CCNC(=O)[C@@H](NC(=O)[C@H](C)NC(=O)[C@H](Cc1c[nH]c2ccccc12)NC(=O)[C@H](Cc1c[nH]cn1)NC(=O)[C@H](CC(N)=O)NC(=O)[C@H](Cc1ccccc1)NC(=O)COCCOCCNC(=O)COCCOCCNC(=O)CC[C@H](NC(=O)CCCCCCCCCCCCCCCCC(=O)O)C(=O)O)C(C)C)C(N)=O
B10: Peptide 142 (peptide)
peptide: {C18 diacid}-[γGlu][AEEA][AEEA]GNHWAV[βAla]HL[Nle]-NH2
SMILES: CCCC[C@H](NC(=O)[C@H](CC(C)C)NC(=O)[C@H](Cc1c[nH]cn1)NC(=O)CCNC(=O)[C@@H](NC(=O)[C@H](C)NC(=O)[C@H](Cc1c[nH]c2ccccc12)NC(=O)[C@H](Cc1c[nH]cn1)NC(=O)[C@H](CC(N)=O)NC(=O)CNC(=O)COCCOCCNC(=O)COCCOCCNC(=O)CC[C@H](NC(=O)CCCCCCCCCCCCCCCCC(=O)O)C(=O)O)C(C)C)C(N)=O
B11: Peptide 145 (peptide)
peptide: {C18 diacid}-[γGlu][AEEA][AEEA]RNHWAV[dA]HL[Nle]-NH2
SMILES: CCCC[C@H](NC(=O)[C@H](CC(C)C)NC(=O)[C@H](Cc1c[nH]cn1)NC(=O)[C@@H](C)NC(=O)[C@@H](NC(=O)[C@H](C)NC(=O)[C@H](Cc1c[nH]c2ccccc12)NC(=O)[C@H](Cc1c[nH]cn1)NC(=O)[C@H](CC(N)=O)NC(=O)[C@H](CCCNC(=N)N)NC(=O)COCCOCCNC(=O)COCCOCCNC(=O)CC[C@H](NC(=O)CCCCCCCCCCCCCCCCC(=O)O)C(=O)O)C(C)C)C(N)=O
B12: Peptide 11 (peptide)
peptide: Palmitoyl-[d(γGlu)][AEEA][AEEA]GNHW[Aib]V[dA]HL[Nle]-NH2
SMILES: CCCCCCCCCCCCCCCC(=O)N[C@H](CCC(=O)NCCOCCOCC(=O)NCCOCCOCC(=O)NCC(=O)N[C@@H](CC(N)=O)C(=O)N[C@@H](Cc1c[nH]cn1)C(=O)N[C@@H](Cc1c[nH]c2ccccc12)C(=O)NC(C)(C)C(=O)N[C@H](C(=O)N[C@H](C)C(=O)N[C@@H](Cc1c[nH]cn1)C(=O)N[C@@H](CC(C)C)C(=O)N[C@@H](CCCC)C(N)=O)C(C)C)C(=O)O
B13: Peptide 143 (peptide)
peptide: {C18 diacid}-[γGlu][AEEA][AEEA][dF]NHWAV[dA]HL[Nle]-NH2
SMILES: CCCC[C@H](NC(=O)[C@H](CC(C)C)NC(=O)[C@H](Cc1c[nH]cn1)NC(=O)[C@@H](C)NC(=O)[C@@H](NC(=O)[C@H](C)NC(=O)[C@H](Cc1c[nH]c2ccccc12)NC(=O)[C@H](Cc1c[nH]cn1)NC(=O)[C@H](CC(N)=O)NC(=O)[C@@H](Cc1ccccc1)NC(=O)COCCOCCNC(=O)COCCOCCNC(=O)CC[C@H](NC(=O)CCCCCCCCCCCCCCCCC(=O)O)C(=O)O)C(C)C)C(N)=O
B14: Peptide 149 (peptide)
peptide: {C20 diacid}-[γGlu][AEEA][AEEA]GNHWAV[dA]HL[Nle]-NH2
SMILES: CCCC[C@H](NC(=O)[C@H](CC(C)C)NC(=O)[C@H](Cc1c[nH]cn1)NC(=O)[C@@H](C)NC(=O)[C@@H](NC(=O)[C@H](C)NC(=O)[C@H](Cc1c[nH]c2ccccc12)NC(=O)[C@H](Cc1c[nH]cn1)NC(=O)[C@H](CC(N)=O)NC(=O)CNC(=O)COCCOCCNC(=O)COCCOCCNC(=O)CC[C@H](NC(=O)CCCCCCCCCCCCCCCCCCC(=O)O)C(=O)O)C(C)C)C(N)=O
B15: Peptide 139 (peptide)
peptide: {C18 diacid}-[γGlu][AEEA][AEEA]GDHW[dA]V[dA]HL[Nle]-NH2
SMILES: CCCC[C@H](NC(=O)[C@H](CC(C)C)NC(=O)[C@H](Cc1c[nH]cn1)NC(=O)[C@@H](C)NC(=O)[C@@H](NC(=O)[C@@H](C)NC(=O)[C@H](Cc1c[nH]c2ccccc12)NC(=O)[C@H](Cc1c[nH]cn1)NC(=O)[C@H](CC(=O)O)NC(=O)CNC(=O)COCCOCCNC(=O)COCCOCCNC(=O)CC[C@H](NC(=O)CCCCCCCCCCCCCCCCC(=O)O)C(=O)O)C(C)C)C(N)=O

The target of the experiment is human GRP receptor (human, UniProt P30550 1-384). Briefly: cell-based or functional assay.
human GRP receptor, sequence (P30550 whole entry): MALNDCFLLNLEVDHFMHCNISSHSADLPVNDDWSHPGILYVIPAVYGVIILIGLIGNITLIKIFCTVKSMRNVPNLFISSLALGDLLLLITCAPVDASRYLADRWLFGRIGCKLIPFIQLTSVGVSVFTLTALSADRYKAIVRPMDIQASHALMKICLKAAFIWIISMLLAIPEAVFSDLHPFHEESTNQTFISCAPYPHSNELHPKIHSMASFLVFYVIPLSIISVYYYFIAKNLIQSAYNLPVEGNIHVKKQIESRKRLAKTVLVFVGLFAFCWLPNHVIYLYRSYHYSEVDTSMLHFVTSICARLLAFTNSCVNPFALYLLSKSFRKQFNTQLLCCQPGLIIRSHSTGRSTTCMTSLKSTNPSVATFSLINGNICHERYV
Consider {C18 diacid}-[γGlu][AEEA][AEEA]GNHWAV[dA]HL[Nle] [Peptide 146], for which the “hIP1 GRPR EC50” value was determined as 279 nM. On to B1, for which the “hIP1 GRPR EC50” value came to 4.09 nM.

Consider B2, for which the “hIP1 GRPR EC50” value amounted to 5.72 nM. With B3, the “hIP1 GRPR EC50” value was 40.5 nM. As for B4, the “hIP1 GRPR EC50” value turned out to be 488 nM. For {C20 diacid}-[γGlu][AEEA][AEEA]GNHWAV[dA]HL[Nle] [Peptide 148], the “hIP1 GRPR EC50” value was found to be 126 nM. Regarding B5, the “hIP1 GRPR EC50” value is more than 10000 nM.

In the case of B6, the “hIP1 GRPR EC50” value came out at 5.99 nM. As for B7, the “hIP1 GRPR EC50” value is 7.72 nM. Consider B8, for which the “hIP1 GRPR EC50” value came to 81.8 nM.

B9: the “hIP1 GRPR EC50” value worked out at 4.8 nM.

As for B10, the “hIP1 GRPR EC50” value turned out to be 3.55 nM. On to B11, for which the “hIP1 GRPR EC50” value is 5.2 nM. The figure for B12 is 3.2 nM; for B13 it is 10.7 nM; for B14 it is 1.89 nM. The value for B15 was more than 10000 nM.
